Source: the DeepSol protein solubility set

Assay: soluble on expression in E. coli; label from the status in PepcDB or PDB records

Sequence | soluble on expression in E. coli
MDIAVQLVDSGGGTLQAGKSLRLSCAISGLAFDGGAMGSEHRLTAGAMGWFRQAPGKDREFVAAISPRTDETYYAESLEGRFSVSRDAAATMVFLQADNVRLDDTASYYCAADEDVTPRVMGVIPHADHWGQGTLVTVSSAAALEHHHHHH | soluble
PQTLYQKLVETHTVARLDSQNVLLYADLHIMNEYTSPQAFAGLAEAGRTVLQPGQNVSVVDHIIPTHPVAIRIIEEPNSALQASNLKKNCERHGIPLFDANNRFQGIEHVIAPELGMIRPGMVVLCGDSHTTTYGALGALGFGIGTSEVEHVLATQTLVYRLAPT | not soluble
MLIQIDSNVLFANVDTLGNIVSTTTNGIGSAGKTTLDGHYSSISGFDQLGASHGAVIKGGIGSAMKTMQQLTEQVNWLKEALNSSRLAFSSQNNFVSRGMDIADEGGNVGGEEVVFPNRPDVVYEDFSFPQPVVQKASSIDELAAAFASTNDSEVEEAVATWKSLSEMATETSQDLRNVAAEVGEHNHGAVFDKAVERIGEIAANAESFAANASTMANHVGLMSQLKTMRMSDVLSAQQALSKIEDPMERKVLEEEFLSRLQSAIQSDVGQSVPVIRNLVTMRSTGGNSGQSIATGMETIAGNGKFSHTGLSSASGATLQPATMGQHPDNLGDFAAVNSRTGQSIDPFSLSTQQAGWTSPDFQPSAGGSSGLNPIKAPLTSAHSSMPASAQTVSTHPSSATGLGVTPIGPRADAMAMYPSANSKPHNSGLNGTSKIGGSSIAQLGASPQSGVSRSAAFGAAGTQSAHSARMSPMMGAPMGAAGSKKRGKTKSVTSSVEEDNNIAALLGESPAVVPGVIGSWVRG | not soluble
NILKALLPTSTAGSLPKPAWLAEPETLWSPWKLQGEELTEGKHDALRLSLQDQQQAGIDIVSDGEQTRQHFVTTFIEHLNGVDFEKRKTVKIRDRYDASVPTVVGPVSRQKSVFVEDAKFLRQQTKQPIKWALPGPMTMIDTLYDDHYKSREKLAWEFAKILNQEAKELEAAGVDIIQFDEPAFNVFFDEVNDWGIACLERAIEGLNCETAVHICYGYGIKANTDWKKTLGSEWRQYEEAFPKLQKSNIDIISLECHNSHVPMELLELIRGKKVMVGAIDVASNTIETPEEVANTLRKALKFVDADKLYPCTNCGMAPLSHQVARGKLNALSAGAEIVRRELST | not soluble
GPGSMGAVKFQLYKTLGVPMKSSIKDITRAYRHLALKYHPDRNPEGVEKFKSISNAYAVLSDPERRAAYDLTGFLSDSADSSHAMSDEAARQQRSAELADQVRTFFATYAGSAEERLDVVRGYEKCRGDFKKMVREYLLFDNGVEAEVQRLHRLVSTLIELGNLSPTPAWKSTSTPEALLRLEKAMHRERQEAENVLKDMAGSGTGAAGAADGDLSSLQVMIRQRQQSSYESMLNHLESKYVTKKSNARESSKRTREAAPTARKDECASKKHRKASHHR | soluble
MGSDKIHHHHHHMNPSPLPYFLGCPSWSENAWRDYLYPADANSNQMLGFYSQVFNAVEGNTTFYARPAPGTIARWAQLMPEHFRFTAKFPRDVSHEGDLRDQLEPAFDFTRLMAPLGRRVSPYWLQLPAQFGPARLGELCHFLDQIAVPVAVEVRNQAFFAKGEEERLLNRLLHERGVERICLDPRALFSCTSRDPAVLHAQSKKPKVPPRPAAFSQHPQVRFIGHPELEANHTFLSPWVEKVAAWIEEGRNPYIFLHTSDNRLAAALAQRFHQRLMARLPGLAPLPELPRAPEVEQLGLL | not soluble
MGSDKIHHHHHHMKVVKFGGSSLATGNNVNKALNIIKNDSSRQVIVVSAPGKRTDDDIKVTDLLITYAYTSLRSNNYDDTVEKIFRRYELIAQYFDLPESDLTKIKRLLLTLPTYDYPNADYRMATFKAHGERLNAILIAKILNHQGIKTRYLEPKDVGLIVTGTPNNAEVNPETYVNLKRINLKNNEKIIFPGFYGITPSGHIATFSRGGSDITGAILARGFDAELYENFTDVDAIFSANPNIVTNPAPIKKMTYQEMRELSYAGFSVFHDEALIPAIQGEIPVNVKNTNDPEKPGTLIVPEDGFIPKHTITGIAGGKNFAALYLRKYMLNKGAGFTLKLMEIFDRHHVSYEHMPSGIDDLTIIFKKDALSDQLIDVICNEIQTSLNPDQMQWIDDYAITMVVGEGMKDKLTLCASILYPLGEKNISIQMINQGASQISIMIGTRRQDEEEVIKTIYQNFIENR | not soluble
GPGSMYNSGGEVRSYAQRVFALYSRENVLSVSRFCLAWYVLWGKQPNPTVTELLFGRCDASGDGNVTKYPKEICEEGYAAPLRGSSSDYCKRPSGVNTVAVGASVPPNATLQRRISEEEFVRFAVAYYDSMGNDASDLSDVPGAANPFHAVPRVAHWAHFIALAGDKGYVTLQDILETENVAWLRPPEYEDGDVNPKGVRGGGRAALLSHAFAIADSNKDGKVVFGDVENYMRPLSS | not soluble
MPNVIGVQFQKAGKLEYYTPNDIQVDIDDWVVVESKRGIEIGIVKNPLMDIAEEDVVLPLKNIIRVADDKDIDKFNCNERDAENALILCKDIVREQGLDMRLVNCEYTLDKSKVIFNFTADDRIDFRKLVKILAQHLKTRIELRQIGVRDEAKLLGGIGPCGRSLCCSTFLGDFEPVSIKMAKDQNLSLNPTKISGACGRLMCCLKYENDYYEEVRAQLPDIGEAIETPDGNGKVVALNILDISMQVKLEGHEQPLEYKLEEIETMHLEHHHHHH | not soluble
MALSAEGSSGGSRGGSPKAEAASVPSWPQILGRLTDNRDLARGQAAWAMDQIMTGNARPAQIAAFAVAMTMKAPTADEVGELAGVMLSHAHPLPADTVPDDAVDVVGTGGDGVNTVNLSTMAAIVVAAAGVPVVKHGNRAASSLSGGADTLEALGVRIDLGPDLVARSLAEVGIGFCFAPRFHPSYRHAAAVRREIGVPTVFNLLGPLTNPARPRAGLIGCAFADLAEVMAGVFAARRSSVLVVHGDDGLDELTTTTTSTIWRVAAGSVDKLTFDPAGFGFARAQLDQLAGGDAQANAAAVRAVLGGARGPVRDAVVLNAAGAIVAHAGLSSRAEWLPAWEEGLRRASAAIDTGAAEQLLARWVRFGRQILEHHHHHH | soluble
MAHHHHHHMQEVMQKALAGRYDPLPPTISPEMTEVVTSLLCGDPHARPSSSKLLNMPICKLFVSGLLEIVQTQPSFAGPLRDTISTHIQSVKQSLKEERRVTVRQMEESQSAAAASTTILEGATPMGSVGDLTLYEGIVKKQSGDLAWKRRYLCIRGALEEGERLDVGRMPKFKSLDLVLAVSKETMRQQCITTPFSELEDVFPVASKYTGSNAQHVFAVAFKTGRRLLFQARGDPERDAWMQKIQQTLGIDEAD | not soluble
MGHHHHHHSHMTDRQDIQKSMAAFKNLSAQCQEVRKRKELELQILTEAIRNWEGDDIKTLGNVTYMSQVLIQCAGSEEKNERYLLLFPNVLLMLSASPRMSGFIYQGKLPTTGMTITKLEDSENHRNAFEISGSMIERILVSCNNQQDLQEWVEHLQKQTKVTSVG | soluble
MPITNASPENILRYLHAAGTGTKEAMKSATSPRGILEWFVNFFTCGGVRRSNERWFREVIGKLTTSLLYVNKNAFFDGNKIFLEDVNGCTICLSCGAASENTDPMVIIEVNKNGKTVTDKVDSERFWNVCRMLKLMSKHNIQQPDSLITEDGFLNLRGVNLAHKDFQGEDLSKIDASNADFRETTLSNVNLVGANLCCANLHAVNLMGSNMTKANLTHADLTCANMSGVNLTAAILFGSDLTDTKLNGAKLDKIALTLAKALTGADLTGSQHTPTPLPDYNDRTLFPHPIF | not soluble
MARWERIVDGVKSIALMRKKIITRGKRIALFVDGPNILRKELGIHLEDIVEALSKLGNIRVAKVILNQYAPQSLIEAVSNQGFEPVIVAGEIGVKMAVEAMREVYNPNIDMIALATRNTEFVPIILKAKEKGKETAIIGVEHGLSSALKHAADYVIILKPRGEKIEERHHEDSEERREGGRGA | not soluble
MGSDKIHHHHHHSDQYSTETFWKTKEHASAGIMGCYNALKLWRSLHTMEFDMLTANAMPYNEANGTQAIGKGEHLSTTALIGSLWKNCYVGIGRTNTFIANVGGVDMDESEKAKMVGEAKFLRAFYYLSLVDKFGGVPLIIDAPNADEQAELPRNSKEEVVNQIVKDLEEAAAVLPDTYASSDLGRATKGAALALKARTLLYNSRWAEAAQAAKQVMESGVYQLFNDYRHFFSEDNKYNCEVIFDIEAKLPEYPTDYDQNIWRLNRPAPLKELVDTYLCVDGKTIEESPLYDPTRPYENRDPRLLKSIVCIGYPYLGKTITKEDVATTGFGVKKYTSYEDDVTIPLVERSAFNFILIRYAEVLLTYAEAQNEASGPDQSVYDAINQLRRRPDINMPEVPKGLTKDQMREVIRRERRIELTFEGLYYSDILRWKTAEKENNGMMHNYEGIEVVKRSFNPKRDYLWPIPYNQTVLNPNLEQNPNWD | not soluble
